Experimental data: article doi:10.1101/313882, “Cryptic adaptor protein interactions regulate DNA replication initiation” (bioRxiv, 2018)
Substitutions are numbered along the chain they refer to. Names may count otherwise.

B1: purified DnaD^WHD F51A (B. subtilis) (domain or fragment, UniProt P39787 1-128, looked up)
chain: MKKQQFIDMQEQGTSTIPNLLLTHYKQLGLNETELILLLKIKMHLEKGSYAPTPNQLQEGMSISVEECTNRLRMFIQKGFLFIEECEDQNGIKFEKYSLQPLWGKLYEYIQLAQNQTQERKAEGEQKS
notes: DnaD, B. subtilis, winged helix domain, amino acids 1-128, F51A; source: E. coli BL21 (DE3), purified (amylose, Ulp1 digestion, HiTrap Q, Sephacryl S-200); not shown: HIS6, N-terminal, cleaved; MBP, N-terminal, cleaved; SUMO, N-terminal, cleaved
B2: purified DnaD^WHD I83A (B. subtilis) (domain or fragment, UniProt P39787 1-128, looked up)
chain: B1 chain with A51F, I83A
notes: DnaD, B. subtilis, winged helix domain, amino acids 1-128, I83A; source: E. coli BL21 (DE3), purified (amylose, Ulp1 digestion, HiTrap Q, Sephacryl S-200); not shown: HIS6, N-terminal, cleaved; MBP, N-terminal, cleaved; SUMO, N-terminal, cleaved
B3: purified DnaD^WHD, wild type (B. subtilis) (domain or fragment, UniProt P39787 1-128, looked up)
chain: B1 chain with A51F
notes: DnaD, B. subtilis, winged helix domain, amino acids 1-128; native N-terminus after Ulp1; also called WT; source: E. coli BL21 (DE3), purified (amylose, Ulp1 digestion, HiTrap Q, Sephacryl S-200); not shown: HIS6, N-terminal, cleaved; MBP, N-terminal, cleaved; SUMO, N-terminal, cleaved
B4: purified DnaD^WHD ΔNT variant (B. subtilis) (domain or fragment, UniProt P39787 19-128, looked up)
chain: NLLLTHYKQLGLNETELILLLKIKMHLEKGSYFPTPNQLQEGMSISVEECTNRLRMFIQKGFLFIEECEDQNGIKFEKYSLQPLWGKLYEYIQLAQNQTQERKAEGEQKS
notes: DnaD, B. subtilis, winged helix domain (1-128) without the N-terminal extension (residues 1-18); The limits 19-128 are worked out from the printed extension (1-18) and the limits of DnaD^WHD (1-128); the purification is that told for DnaD^WHD and its variants; source: E. coli BL21 (DE3), purified (amylose, Ulp1 digestion, HiTrap Q, Sephacryl S-200); not shown: HIS6, N-terminal, cleaved; MBP, …

How the values were obtained:
[1] = biological target: the molecule itself; test: cross-linking; purified DnaD^WHD or variant at 16 uM with 0.03%, 0.06%, 0.12% glutaraldehyde; 20 mM HEPES pH 7.7, 150 mM NaCl, 1 mM DTT, 1 mM EDTA, 5% glycerol; 15 minutes at room temperature; SDS-polyacrylamide gel, coomassie blue
[2] = biological target: the molecule itself; test: SEC; size exclusion chromatogram of wild type DnaD^WHD or the ΔNT variant, absorbance at 280 nm (S2 Fig B)

| Protein | stoichiometry N [1] | further results |
| --- | --- | --- |
| B1 | 4 |  |
| B2 | 4 |  |
| B3 |  | binding result [1]: binds |
| B4 |  | stoichiometry N [2]: 2 |
